According to article PMC8113479, “Following replicative DNA synthesis by time-resolved X-ray crystallography”:

How the values were obtained:
[1] = target: T1, Bst DNA polymerase I large fragment (Geobacillus stearothermophilus, UniProt E1C9K5 3-580); experiment: X-ray crystallography; dATP soak, 120 min, product complex; Co-crystals; P/T duplex annealed in Bst buffer (50 mM Tris-Cl pH 7.5, 150 mM NaCl, 1 mM EDTA, 10 mM BME) with 20 mM MgCl2; crystallization and soak conditions not in the material; details: protein: recombinant; tags: tagless; template 5' overhang 4 nt and 3' overhang 1 nt; 11 bp
[2] = target: T1, Bst DNA polymerase I large fragment; experiment: X-ray crystallography; dATP and dCTP soak, 48 h, product binary complex; Co-crystals; P/T duplex annealed in Bst buffer (50 mM Tris-Cl pH 7.5, 150 mM NaCl, 1 mM EDTA, 10 mM BME) with 20 mM MgCl2; crystallization and soak conditions not in the material; details: protein: recombinant; tags: tagless; template 5' overhang 3 nt and 3' overhang 1 nt; 12 bp
[3] = target: T1, Bst DNA polymerase I large fragment; experiment: X-ray crystallography; 0 min, before dATP soak; Co-crystals; P/T duplex annealed in Bst buffer (50 mM Tris-Cl pH 7.5, 150 mM NaCl, 1 mM EDTA, 10 mM BME) with 20 mM MgCl2; crystallization and soak conditions not in the material; details: protein: recombinant; tags: tagless; template 5' overhang 5 nt (GACGT) and 3' overhang 1 nt (A); 10 bp

B1: P+1/T duplex (primer extended by dA in crystallo) (dsDNA)
DNA 1: GCGATCACGTA
DNA 2: GACGTACGTGATCGCA
B1: binds [1].

B2: P+2/T duplex (primer extended by dA and dC in crystallo) (dsDNA)
DNA 1: GCGATCACGTAC
DNA 2: GACGTACGTGATCGCA
B2: binds [2].

B3: P/T duplex (starting primer-template) (dsDNA)
DNA 1: GCGATCACGT
DNA 2: GACGTACGTGATCGCA
B3: binds [3].
